Results from US20140120109A1 (Regeneron, published 2014).

T1: human DR3, full-length, expressed on HEK293 NFkB-luciferase reporter cells (human, UniProt Q93038 25-417)
T1 sequence: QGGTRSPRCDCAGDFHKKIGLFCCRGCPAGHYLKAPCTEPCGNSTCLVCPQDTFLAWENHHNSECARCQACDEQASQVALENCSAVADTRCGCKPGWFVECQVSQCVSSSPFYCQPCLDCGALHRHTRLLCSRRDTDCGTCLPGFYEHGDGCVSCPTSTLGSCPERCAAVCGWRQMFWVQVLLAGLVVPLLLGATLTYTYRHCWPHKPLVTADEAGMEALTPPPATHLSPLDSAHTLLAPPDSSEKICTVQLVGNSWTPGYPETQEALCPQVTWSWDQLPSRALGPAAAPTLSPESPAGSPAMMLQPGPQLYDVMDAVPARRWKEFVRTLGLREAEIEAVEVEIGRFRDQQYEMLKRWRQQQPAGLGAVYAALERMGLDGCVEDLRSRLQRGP

T2: Fhm, hTL1A(Q167R), soluble, E. coli-expressed, residues 72-251 of SEQ ID NO:246 (human, UniProt O95150 72-251)
T2 construct: with or without N-terminal Met
T2 chain: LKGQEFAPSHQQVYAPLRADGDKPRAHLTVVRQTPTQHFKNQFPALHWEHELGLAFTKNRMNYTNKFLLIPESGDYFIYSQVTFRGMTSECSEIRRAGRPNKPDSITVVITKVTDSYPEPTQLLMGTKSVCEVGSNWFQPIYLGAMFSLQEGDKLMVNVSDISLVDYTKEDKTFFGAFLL

B1: mouse TL1A, soluble, E. coli-expressed, residues 76-252 of SEQ ID NO:250 (ligand)
chain: ITEERSEPSPQQVYSPPRGKPRAHLTIKKQTPAPHLKNQLSALHWEHDLGMAFTKNGMKYINKSLVIPESGDYFIYSQITFRGTTSVCGDISRGRRPNKPDSITMVITKVADSYPEPARLLTGSKSVCEISNNWFQSLYLGATFSLEEGDRLMVNVSDISLVDYTKEDKTFFGAFLL
B2: cynomolgus monkey TL1A, soluble, E. coli-expressed, residues 72-251 of SEQ ID NO:248 (ligand)
chain: LKGQEFAPSHQQVYAPLRADGDKPRAHLTVVRQTPTQHLKNQFPALHWEHELGLAFTKNRMNYTNKFLLIPESGDYFVYSQVTFRGMTSECSEIRQAGRPNKPDSITVVITKVTDSYPEPTQLLMGTKSVCEVGSNWFQPIYLGAMFSLQEGDKLMVNVSDISLVDYTKEDKTFFGAFLL

Tests used:
[1] = molecular target: T1, human DR3, full-length, expressed on …; experiment: cell-based or functional assay
[2] = molecular target: B2; experiment: SPR 25C, mAb captured
Experimental: (§1) Measurements were conducted on a T100 BIACORE™ instrument. […] Kinetic association (kₐ) and dissociation (kd) rate constants were determined by fitting the data to a 1:1 binding model using BIAevaluation 4.1 curve fitting software (BIAcore Life Sciences). Molar concentrations of TL1A/Fhm used in the data fitting assumed a monomeric state for TL1A in solution. Binding dissociation equilibrium constants (KD) and dissociative half-lives (t_{1/2}) were calculated from the kinetic rate constants as: KD (M)=kd/kₐ; and t_{1/2} (min)=[In2/(60*kd)].

[3] = molecular target: T2, Fhm, hTL1A(Q167R), soluble, E. …; experiment: SPR 25C, mAb captured
Experimental: as §1

[4] = molecular target: B1; experiment: SPR 25C, steady state
Experimental: Measurements were conducted on a T100 BIACORE™ instrument. […] Kinetic association (kₐ) and dissociation (kd) rate constants were determined by fitting the data to a 1:1 binding model using BIAevaluation 4.1 curve fitting software (BIAcore Life Sciences). Molar concentrations of TL1A/Fhm used in the data fitting assumed a monomeric state for TL1A in solution. […]

[5] = molecular target: B2; experiment: SPR 37C, mAb captured
Experimental: as §1

| Binder | EC50, NFkB-luciferase reporter [1] | also measured |
| --- | --- | --- |
| human TL1A, soluble, CHO-expressed, residues 72-251 of SEQ ID NO:244 with N-terminal His6-tag (ligand) HHHHHHLKGQEFAPSHQQVYAPLRADGDKPRAHLTVVRQTPTQHFKNQFPALHWEHELGLAFTKNRMNYTNKFLLIPESGDYFIYSQVTFRGMTSECSEIRQAGRPNKPDSITVVITKVTDSYPEPTQLLMGTKSVCEVGSNWFQPIYLGAMFSLQEGDKLMVNVSDISLVDYTKEDKTFFGAFLL | 630 pM | – |
| Fhm, hTL1A(Q167R), soluble, CHO-expressed, residues 72-251 of SEQ ID NO:246 (ligand) HHHHHHLKGQEFAPSHQQVYAPLRADGDKPRAHLTVVRQTPTQHFKNQFPALHWEHELGLAFTKNRMNYTNKFLLIPESGDYFIYSQVTFRGMTSECSEIRRAGRPNKPDSITVVITKVTDSYPEPTQLLMGTKSVCEVGSNWFQPIYLGAMFSLQEGDKLMVNVSDISLVDYTKEDKTFFGAFLL | 320 pM | – |
| cynomolgus monkey TL1A, soluble, CHO-expressed, residues 72-251 of SEQ ID NO:248 with N-terminal His6-tag (ligand) HHHHHHLKGQEFAPSHQQVYAPLRADGDKPRAHLTVVRQTPTQHLKNQFPALHWEHELGLAFTKNRMNYTNKFLLIPESGDYFVYSQVTFRGMTSECSEIRQAGRPNKPDSITVVITKVTDSYPEPTQLLMGTKSVCEVGSNWFQPIYLGAMFSLQEGDKLMVNVSDISLVDYTKEDKTFFGAFLL | 860 pM | – |
| B1 | 10 pM | – |
| human TL1A, soluble, E. coli-expressed, residues 72-251 of SEQ ID NO:244 (ligand) LKGQEFAPSHQQVYAPLRADGDKPRAHLTVVRQTPTQHFKNQFPALHWEHELGLAFTKNRMNYTNKFLLIPESGDYFIYSQVTFRGMTSECSEIRQAGRPNKPDSITVVITKVTDSYPEPTQLLMGTKSVCEVGSNWFQPIYLGAMFSLQEGDKLMVNVSDISLVDYTKEDKTFFGAFLL | 120 pM | – |
| B2 | 2020 pM | – |
| rat TL1A, soluble, CHO-expressed, residues 76-252 of SEQ ID NO:258 with N-terminal His6-tag (ligand) HHHHHHVTEERSAPSAQPVYTPSRDKPKAHLTIMRQTPVPHLKNELAALHWENNLGMAFTKNRMNYTNKFLVIPESGDYFIYSQITFRGTTSECGDISRVRRPKKPDSITVVITKVADSYPEPAHLLTGTKSVCEISSNWFQPIYLGAMFSLEEGDRLMVNVSDISLVDYTKEDKTFFGAFLI | 60 pM | – |
| H2M1704N (antibody, V domains shown, chimeric hybridoma antibody: human variable regions, mouse constant regions (mouse Fc)) VH: EVQLVESGGGLVQPGGSLRLSCAVSGFTFSSYWMSWVRQAPGKGLEWVANIKEDGSEKNYVDSVKGRFTLSSDNAKNSLYLQMNSLRAEDTAVYYCAREDYDSYYKYGMDVWGQGTAVIVSS VL: not shown | – | Kd [2]: 285 pM; t1/2 [2]: 57 min; Kd [3]: 282 pM; t1/2 [3]: 52 min; Kd [4]: 127000 pM; Kd [5]: 751 pM; t1/2 [5]: 16 min |
| mouse TL1A, soluble, CHO-expressed, residues 76-252 of SEQ ID NO:250 with N-terminal His6-tag (ligand) HHHHHHITEERSEPSPQQVYSPPRGKPRAHLTIKKQTPAPHLKNQLSALHWEHDLGMAFTKNGMKYINKSLVIPESGDYFIYSQITFRGTTSVCGDISRGRRPNKPDSITMVITKVADSYPEPARLLTGSKSVCEISNNWFQSLYLGATFSLEEGDRLMVNVSDISLVDYTKEDKTFFGAFLL | 80 pM | – |
